Measured values taken from patent publication US20140011978A1 (EPFL TTO, published 2014).

What was measured:
NT-3 = biological target: T1, NT-3 (UniProt P20783 139-257); test: ELISA: growth factor coated, Fg fragment in solution, A450 (methods analogous to Example 3)
T1 sequence (looked up): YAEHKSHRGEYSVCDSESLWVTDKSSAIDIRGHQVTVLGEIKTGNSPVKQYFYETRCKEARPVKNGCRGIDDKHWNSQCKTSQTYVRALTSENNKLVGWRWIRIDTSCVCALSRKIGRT
Protocol: (§1) ELISA plates were coated with cytokines or BSA and further incubated with TNC III1-5 to analyze binding of TNC III1-5 to a wide variety of cytokines. […] A large amount of heparin (4 μM) impaired binding of TNC III1-5 to these cytokines. Results are depicted in FIG. 3. Method: 50 nM of cytokine was coated for (1 hr, 37° C.). After blocking with 2% BSA (1 hr, RT). 100 nM TNC III1-5 was applied in PBST (0.05% tween, 0.1% bovine serum albumin (BSA)) (1 hr, RT). TNC III1-5 was detected with horseradish peroxidase (HRP)-anti-HIS in PBST (1 hr, RT) and developed with 3,3′,5,5′-tetramethylbenzidine (TMB), a soluble colorimetric HRP […]. Addition of sulfuric acid stop solution changes the color to yellow, enabling accurate measurement of the intensity at 450 nm using a spectrophotometer or plate reader. […] Heparin (4 μM) was added to TNC III1-5 to test the effect of blocking the heparin binding site of TNC III1-5, which has been defined as domain TNC III5 (Weber, Zimmermann, et al., 1995).
(§2) ELISA plates were coated with cytokines or BSA and further incubated with Fg β15-66 to analyze binding of […] to a wide variety of cytokines. […] Results are depicted in FIG. 4. Method: The methods were analogous to those used in Example 3.

EGF = test: as above
Protocol: as §1, §2

BDNF = biological target: T2, BDNF (UniProt P23560 129-247); test: as above
T2 construct: also called brain-derived neurotrophic factor
T2 sequence (looked up): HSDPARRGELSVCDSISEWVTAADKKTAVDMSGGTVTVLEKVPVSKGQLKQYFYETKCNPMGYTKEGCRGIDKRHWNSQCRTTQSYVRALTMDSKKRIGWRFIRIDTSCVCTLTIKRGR
Protocol: as §1, §2

FGF-10 = biological target: T3, FGF-10 (UniProt O15520 38-208); test: as above
T3 sequence (looked up): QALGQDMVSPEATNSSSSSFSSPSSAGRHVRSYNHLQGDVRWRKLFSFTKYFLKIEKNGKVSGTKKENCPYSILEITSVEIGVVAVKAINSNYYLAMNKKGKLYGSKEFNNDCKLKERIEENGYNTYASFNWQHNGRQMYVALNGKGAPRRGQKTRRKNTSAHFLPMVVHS
Protocol: as §1, §2

VEGF-A165 = VEGF-A165 (UniProt P15692-4 27-191); test: as above
Protocol: as §1, §2

BMP-2 = BMP-2 (UniProt P12643 283-396); test: as above
Protocol: as §1, §2

IGF-BP3 = IGF-BP3 (UniProt P17936 28-291); test: as above
Protocol: as §1, §2

PlGF-1 = biological target: T4, PlGF-1 (UniProt P49763-2 19-149); test: as above
T4 sequence (looked up): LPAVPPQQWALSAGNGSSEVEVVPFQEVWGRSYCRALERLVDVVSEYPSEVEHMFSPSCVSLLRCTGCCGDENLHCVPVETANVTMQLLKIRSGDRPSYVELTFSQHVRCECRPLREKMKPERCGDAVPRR
Protocol: as §1, §2

TGF-β1 = TGF-β1 (UniProt P01137 279-390); test: SPR, Fg β15-66 on the chip, cytokine injected (methods as Example 5), Langmuir fit
Protocol: (§3) Surface plasmon resonance (SPR) was done to quantify the affinity of specific cytokines to TNC III1-5. […] Method: Surface plasmon resonance chips were functionalized with TNC III1-5 or BSA and cytokines were injected over the chips at different concentrations. The chips contained gold with free carboxyl groups that were activated to bind TNC III1-5 in one channel and BSA as a reference protein in another channel. The specific response of a cytokine to TNC III1-5 (in RU) was obtained relative to the response to BSA. Results are depicted in FIG. 5.
(§4) Surface plasmon resonance (SPR) was done to quantify the affinity of specific cytokines to Fg β15-66. […] Method: The methods used above were analogous to those used in Example 5. Fits of the experimental data were made with Langmuir binding kinetics. Results are depicted in FIG. 6.

PlGF-2 = biological target: T5, PlGF-2 (UniProt P49763-3 19-170); test: as above
T5 sequence (looked up): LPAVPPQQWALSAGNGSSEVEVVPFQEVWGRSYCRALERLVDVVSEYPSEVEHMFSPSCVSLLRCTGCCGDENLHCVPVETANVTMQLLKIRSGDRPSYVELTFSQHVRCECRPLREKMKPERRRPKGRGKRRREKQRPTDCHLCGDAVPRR
Protocol: as §3, §4

FGF-2 = FGF-2 (UniProt P09038 135-288, limits assumed); test: as above
Protocol: as §3, §4

IGF-BP5 = IGF-BP5 (UniProt P24593 21-272); test: as above
Protocol: as §3, §4

Sequence of FGF-2 (P09038 135-288 limits assumed): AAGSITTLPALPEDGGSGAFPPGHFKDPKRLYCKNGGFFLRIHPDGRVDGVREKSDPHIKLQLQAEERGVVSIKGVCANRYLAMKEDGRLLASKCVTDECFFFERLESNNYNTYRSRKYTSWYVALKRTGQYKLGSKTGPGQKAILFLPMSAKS
Sequence of VEGF-A165 (P15692 other isoform, or with tags, fused parts or gaps limits assumed): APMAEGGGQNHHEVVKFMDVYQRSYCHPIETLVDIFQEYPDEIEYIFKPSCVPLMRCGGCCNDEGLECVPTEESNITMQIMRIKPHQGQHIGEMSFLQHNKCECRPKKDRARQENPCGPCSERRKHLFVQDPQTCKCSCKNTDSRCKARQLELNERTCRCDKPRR
Sequence of IGF-BP5 (P24593 21-272 limits assumed): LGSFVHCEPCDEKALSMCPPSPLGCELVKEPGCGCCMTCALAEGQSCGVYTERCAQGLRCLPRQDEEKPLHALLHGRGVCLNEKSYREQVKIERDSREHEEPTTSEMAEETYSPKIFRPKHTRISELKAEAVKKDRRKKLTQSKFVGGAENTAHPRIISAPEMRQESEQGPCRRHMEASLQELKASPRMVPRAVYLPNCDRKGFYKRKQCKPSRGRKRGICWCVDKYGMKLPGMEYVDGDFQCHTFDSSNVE
Sequence of BMP-2 (P12643 283-396 limits assumed): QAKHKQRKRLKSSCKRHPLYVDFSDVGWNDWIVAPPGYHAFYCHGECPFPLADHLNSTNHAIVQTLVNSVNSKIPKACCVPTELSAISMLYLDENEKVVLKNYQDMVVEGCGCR
Sequence of IGF-BP3 (P17936 28-291 limits assumed): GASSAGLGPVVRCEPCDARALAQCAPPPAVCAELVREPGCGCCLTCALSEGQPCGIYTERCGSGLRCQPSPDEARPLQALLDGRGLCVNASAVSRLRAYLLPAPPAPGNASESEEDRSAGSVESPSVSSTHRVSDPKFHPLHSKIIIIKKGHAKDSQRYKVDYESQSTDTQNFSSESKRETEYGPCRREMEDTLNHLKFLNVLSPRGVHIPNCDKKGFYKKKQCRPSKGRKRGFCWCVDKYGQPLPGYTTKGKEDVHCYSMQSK
Sequence of TGF-β1 (P01137 279-390 limits assumed): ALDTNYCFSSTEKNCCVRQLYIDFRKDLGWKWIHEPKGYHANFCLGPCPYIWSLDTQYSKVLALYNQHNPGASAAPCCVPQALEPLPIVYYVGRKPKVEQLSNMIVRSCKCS

B1: Fg β15-66 (other)
chain: GSNQEQVSPLGHRPLDKKREEAPSLRPAPPPISGGGYRARPAKAAATQKKVERKAPDAGGCGHHHHHH
notes: Made as a GST fusion; GST was cleaved off; also called TG-Fg β15-66; fibrinogen β15-66 domain
NT-3
  binding result: binds
EGF
  binding result: no binding
BDNF
  binding result: binds
FGF-10
  binding result: binds
VEGF-A165
  binding result: binds
BMP-2
  binding result: binds
IGF-BP3
  binding result: binds
PlGF-1
  binding result: no binding
TGF-β1
  Kd: 56.5 nM
PlGF-2
  Kd: 1.9 nM
FGF-2
  Kd: 53 nM
IGF-BP5
  Kd: 19.6 nM
